The target in data set [1] is T1, ParB_pSM19035 (ParBpSM, Omega) (plasmid pSM19035, UniProt Q57468 1-71).
T1 sequence: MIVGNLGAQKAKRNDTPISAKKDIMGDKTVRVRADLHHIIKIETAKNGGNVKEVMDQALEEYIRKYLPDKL
Put plainly: EMSA; 2 mM Mg2+; EMSA: 50 mM Tris-HCl pH 7.4, 100 mM KCl, 2 mM MgCl2, 1 mM DTT, room temperature 15 min, 0.05 nM 32P-DNA, 4-12% PAGE. TIRF binding to the salmon sperm DNA carpet (undefined sequence pool) and ATPase assays not listed. Conditions: protein: recombinant; tags: none stated; chain copies: 2; label: 32P; blunt.

In data set [2] the target is ParApSM-His6 (non-fluorescent, wild-type) (Streptococcus pyogenes (plasmid pSM19035)) (UniProt Q57280).
The target is the same in data set [3]. This is another data set of the same source.
Data set [4] shares this target. The source holds these as a separate data set.
The target is the same in data set [5]. This is another data set of the same source.
Data set [6] addresses ParApSM^D60E-GFP-His6 (Streptococcus pyogenes (plasmid pSM19035)) (UniProt Q57280). Nature of the data set: TIRF microscopy on an nsDNA-carpeted flow cell; ParApSM^D60E-GFP (1 μM) bound first to the nsDNA-carpet, then washed with 250 nM ParBpSM-Alexa647 plus 3R-parSpSM duplex (125 nM heptad); room temperature; 1 mM ATP.
Data set [7] shares this target. Put plainly: TIRF microscopy on an nsDNA-carpeted flow cell; ParApSM^D60E-GFP (1 μM) bound first to the nsDNA-carpet, then washed with 250 nM ParBpSM-Alexa647 plus 4R-parSpSM duplex (125 nM heptad); room temperature; 1 mM ATP.
The target is the same in data set [8]. Put plainly: TIRF microscopy on an nsDNA-carpeted flow cell; ParApSM^D60E-GFP (1 μM) bound first to the nsDNA-carpet, then washed with 250 nM ParBpSM-Alexa647 plus 36 nM 7R-parSpSM duplex; room temperature; 1 mM ATP; apparent constants.
The target in data set [9] is ParApSM-GFP-His6 (Streptococcus pyogenes (plasmid pSM19035)) (UniProt Q57280). Nature of the data set: TIRF microscopy on an nsDNA-carpeted flow cell; ParApSM-GFP bound first to the nsDNA-carpet to ~10% of saturation, then washed with 1 μM ParBpSM-Alexa647 plus 7R-parSpSM duplex; room temperature; 1 mM ATP; apparent constants.
Data set [10] has the same target. Nature of the data set: TIRF microscopy on an nsDNA-carpeted flow cell; ParApSM-GFP bound first to the nsDNA-carpet to ~10% of saturation, then washed with 1 μM ParBpSM-Alexa647 plus 125 nM 4R-parSpSM duplex; room temperature; 1 mM ATP; apparent constants.
The target is the same in data set [11]. Nature of the data set: TIRF microscopy on an nsDNA-carpeted flow cell; ParApSM-GFP bound first to the nsDNA-carpet to ~10% of saturation, then washed with 1 μM ParBpSM-Alexa647 plus 166 nM 3R-parSpSM duplex; room temperature; 1 mM ATP; apparent constants.
Data set [12] shares this target. Put plainly: TIRF microscopy on an nsDNA-carpeted flow cell; ParApSM-GFP (1 μM) and ParBpSM-Alexa647 (1 μM) preincubated with 1 mM ATP without parSpSM, infused over the nsDNA-carpet for 15 min, then washed with ATP buffer without proteins; room temperature; apparent constants.
Data set [13] shares this target. Nature of the data set: TIRF microscopy on an nsDNA-carpeted flow cell; ParApSM-GFP (1 μM) and ParBpSM-Alexa647 (1 μM) preincubated with 1 mM ATP and 3R-parSpSM (0.5 μM consensus repeats), infused over the nsDNA-carpet for 15 min, then washed with ATP buffer without proteins; room temperature; apparent constants.
Data set [14] has the same target. Nature of the data set: TIRF microscopy on an nsDNA-carpeted flow cell; ParApSM-GFP (1 μM) and ParBpSM-Alexa647 (1 μM) preincubated with 1 mM ATP and 7R-parSpSM (0.5 μM consensus repeats), infused over the nsDNA-carpet for 15 min, then washed with ATP buffer without proteins; room temperature; apparent constants.
Data set [15] shares this target. Put plainly: TIRF microscopy on an nsDNA-carpeted flow cell; ParApSM-GFP (1 μM) and ParBpSM-Alexa647 (1 μM) preincubated with 1 mM ATP and 4R-parSpSM (0.5 μM consensus repeats), infused over the nsDNA-carpet for 15 min, then washed with ATP buffer without proteins; room temperature; apparent constants.
Data set [16] shares this target. Nature of the data set: TIRF microscopy on an nsDNA-carpeted flow cell; ParApSM-GFP (1 μM, 1 mM ATP) bound first to the nsDNA-carpet to ~10% of saturation, then washed with 1 μM ParBpSM-Alexa647 without parSpSM; room temperature; 50 mM Tris-HCl pH 7.4, 100 mM KCl, 2 mM MgCl2, 10% glycerol, 1 mM ATP; apparent constants.

B1: scrambled 55 bp (nsDNA) (dsDNA)
DNA 1: GGGATCAAACACTTGATAGACAAGTCTTTGACCTAATTGTGAAAATTATGAAGGG
DNA 2: CCCTTCATAATTTTCACAATTAGGTCAAAGACTTGTCTATCAAGTGTTTGATCCC
For the molecule B1, in [1], the Kd is around 1000 nM.

B2: ParBpSM wild-type (natural protein)
chain: T1 sequence
Regarding B2, in data set [2], the steady-state ParApSM ATPase turnover with 8 μM ParBpSM, scrambled-sequence duplex and nsDNA (pBR322), 37°C stood at 2.4 h^–1; the steady-state ParApSM ATPase turnover with ParBpSM, 7R-parSpSM duplex and nsDNA (pBR322), 37°C was determined as 20.5 h^–1. Further, in [3], the ParBpSM concentration at which the ParApSM ATPase stimulation saturates, with parSpSM DNA of 1-3 repeats and nsDNA is 2 µM. The steady-state ParApSM ATPase turnover with ParBpSM, 3R-1nc-3R-parSpSM duplex and nsDNA, 37°C in data set [4] stood at 8.3 h^–1. Moreover, the ParBpSM concentration for half-activation of the ParApSM ATPase at high 7R-parSpSM concentration, with nsDNA in [5] was 650 nM.

B3: ParBpSM-Alexa647 (ParBpSM-GCE, 1% labeled) (natural protein)
chain: T1 sequence
modifications: Alexa647 maleimide on the added cysteine (73C); 1% of the protein labelled
Take B3: in [6], the ParBpSM/ParApSM ratio on the nsDNA-carpet at the initial ParBpSM overshoot peak (ParBpSM/ParApSM) stood at 0.6. Besides, the ParBpSM/ParApSM ratio on the nsDNA-carpet at the initial ParBpSM overshoot peak (ParBpSM/ParApSM) in data set [7] was 1.3. In data set [8], the ParBpSM/ParApSM ratio on the nsDNA-carpet at the initial ParBpSM overshoot peak (ParBpSM/ParApSM) came to 1.75; the apparent koff of ParBpSM from the ParApSM^D60E-bound nsDNA-carpet after its peak (ParBpSM and 7R-parSpSM in the wash) worked out at 0.036 min^–1. Also, in data set [9], the ParBpSM density on the nsDNA-carpet relative to carpet-bound ParApSM worked out at 2 fold; the ParBpSM/ParApSM molar ratio on the nsDNA-carpet at the start of the dissociation burst (ParBpSM/ParApSM) was 2.8; the apparent koff of ParBpSM from the ParApSM-bound nsDNA-carpet after its peak (ParBpSM and 7R-parSpSM in the wash) amounted to 2.4 min^–1. In addition, in [10], the ParBpSM/ParApSM molar ratio on the nsDNA-carpet at the start of the dissociation burst (ParBpSM/ParApSM) was 1.7; the apparent koff of ParBpSM from the ParApSM-bound nsDNA-carpet after its peak (ParBpSM and 4R-parSpSM in the wash) was found to be 3.9 min^–1. Further, in data set [11], the ParBpSM/ParApSM ratio on the nsDNA-carpet (ParBpSM/ParApSM) was 1.3; the apparent koff-fast (~24%) of ParBpSM from the ParApSM-bound nsDNA-carpet (ParBpSM and 3R-parSpSM in the wash) came to 1.4 min^–1; the apparent koff-slow of ParBpSM from the ParApSM-bound nsDNA-carpet (ParBpSM and 3R-parSpSM in the wash) is 0.05 min^–1. In data set [12], the ParBpSM density on the nsDNA-carpet relative to ParApSM after 15 min of infusion (ParBpSM/ParApSM) was determined as 0.67 and the koff of the fast-dissociating majority (~75%) of ParBpSM amounted to 7 min^–1. Besides, in [13], the ParBpSM density on the nsDNA-carpet relative to ParApSM after 15 min of infusion (ParBpSM/ParApSM) is 0.67 and the koff of the fast-dissociating majority (~75%) of ParBpSM amounted to 4 min^–1. In data set [14], the ParBpSM/ParApSM ratio accumulated on the nsDNA-carpet (ParBpSM/ParApSM) amounted to 1.2, the koff-fast-B (~70%) was 1.1 min^–1 and the koff-slow-B stood at 0.13 min^–1. In [15], the ParBpSM/ParApSM ratio on the nsDNA-carpet at the end of 15 min of infusion (ParBpSM/ParApSM) was 0.75, the ParBpSM/ParApSM ratio on the nsDNA-carpet within 1 min of washing (ParBpSM/ParApSM) is 0.5, the koff-fast-B (66%) turned out to be 1.9 min^–1 and the koff-slow-B is 0.23 min^–1. Also, in data set [16], the ParBpSM/ParApSM ratio on the nsDNA-carpet after several min of washing (ParBpSM/ParApSM) was found to be 1, the peak density on the ParApSM-bound nsDNA-carpet was determined as 3000 dimers/μm^2 and the plateau density on the ParApSM-bound nsDNA-carpet is 2000 dimers/μm^2.
